{"source": "patent US10920254B2", "about": "“Methods and materials for producing 5 and 7-carbon monomers” (INVISTA North America S.á.r.l., priority 2015, dated 2021)", "experiment": "coupled assay of 5-hydroxyvalerate CoA transferase and thiolase, LC-MS detection of acyl-CoAs", "format": "biochemical", "conditions": "1 mM acetyl-CoA, 1 mM 5-hydroxyvalerate, pH 6.8, 30° C.; no analytical standards, ions of expected molecular weight", "description": "For each culture, expression plasmids were freshly transformed into BL21(DE3) (Agilent). Colonies from fresh agar plates were used to inoculate 20 ml LB in 250 ml flask overnight pre-culture. For all constructs except 237, ampicillin was used, for 237 kanamycin was required. After incubation overnight at 37° C. and 200 rpm, pre-cultures were used to inoculate (1:100) larger cultures, 350 ml LB, with respective antibiotic in […]. After 2.5 h of shaking with 200 rpm at 37° C., cultures reached OD600 in the range 0.5-0.7 at which point they were induced with 1 mM IPTG and the temperature of the culture was changed to 25° C. Incubation continued overnight. Cells were harvested the next day and stored at −20° C. until protein purification was performed.\nTo purify an overexpressed protein, a bacterial pellet from a 350 ml culture was resuspended in up to total 20 ml of Binding Buffer (20 mM Sodium phosphate pH 7.4, 500 mM Sodium chloride, 20 mM imidazole, 5% glycerol) and sonicated for 2 min with a microtip (amplitude 50%, 1 s pulse ON, 2 s OFF). Cell suspension was centrifuged with 20,000 G for 30 min at 4° C. As all the tested proteins were His-tagged, the purification with Immobilized Metal Affinity Chromatography was sufficient to ensure both necessary purity and amount for the enzymatic assays. […]"}
{"molecule": "BDIGENE #246: Clostridium viride 5-hydroxyvalerate CoA transferase (protein, Clostridium viride, Clostridium viride 5-hydroxyvalerate CoA transferase) MAQFVTAQEAVKHIPNGSRVVLAHSTGEPRTLVKAMVENYEQYKDVEVCHMLGLGPYEYTNPEMKGHLWHNSLFMGPGGRKAFNENRLDFTPGYFCDSIKFFREGYLPVDVLMMTVSPPDKHGYVTCGITCDFTMPAFECAKMVIVQVNKNMPRTFGQTAIHLDDIDFAVEADDPLYGSVPGELTDIDRKIGEHCASLINDGACLQLGIGGIPNAVLTYLTEKNDMGIHSEMLSDGILQLIKAGNINNSKKQIHVGKSAVTFLNGSQELYDYVDDNPSVEFYPVDYINDPYVIGKNDNMVSVNSALSVDLMGQIVADNLSATRQISGAGGFVDFVRGATISKGGISIVAMPSTAAGGKASRIEMMFDAGRPITLTRFESFYVVTEYGIAKMRGNSLRTRARQLIEIAHPDFRDEMKEFYEKRFGEKY", "values": [{"measurement": "intermediate product 5-hydroxyvaleryl-CoA by LC-MS", "value": "detected in all samples containing both substrates and BDIGENE #246"}]}
